Entries after “also recorded” stand apart in the source; their conditions may differ. Bridges are numbered along the chain shown (N, C = ends). Where no end group is shown, it is not given here. [ ]: non-standard residue; d: D form. S5 = C=CCCC[C@](C)(N)C(=O)O; Sar = CNCC(=O)O
Columns and labels:
PD-1 binding to PD-L1 = target: T1, PD-1 binding to PD-L1 (Homo sapiens, UniProt Q9NZQ7); assay: PD-1:PD-L1 inhibitor screening ELISA; conditions: FIG. 8
T1 construct: purchased
Method: PIC1 peptides were allowed to bind to immobilized PD-L1 on the surface of the plate. Biotinylated PD-1 was then added and bound PD-1 detected by streptavidin-HRP reagent followed by TMB as the substrate for the colorimetric assay.
This inhibitor screening ELISA pair was designed to facilitate the identification and characterization of new PD-1 pathway inhibitors. In this assay, biotinylated human PD-1 was bound to immobilized human PD-L1 and a colorimetric sandwich ELISA platform was used. Plates were coated with human PD-L1 followed by incubation with various PIC1 peptides. Human PD-1-Biotin was then allowed to bind the coated human PD-L1 followed by addition of streptavidin-HRP. TMB was then added as the colorimetric HRP substrate and the wells of the plate analyzed in a plate reader at an absorbance of 450 nm.
The immune checkpoint pathway is an area of significant interest in cancer research. PD-1 is one of the best characterized checkpoint proteins. The binding between PD-1 and its ligand PD-L1 suppresses T-cell activation and allows cancer cells to escape from body's immune surveillance. Therefore, the pharmaceutical inhibition of PD-1 or its ligand has been considered a promising strategy by many cancer researchers. To ascertain if these PIC1 derivatives could inhibit PD-1 interaction with PD-L1, a commercial ELISA kit was utilized. […]

[1] = without PEGylation; as described in U.S. Pat. No. 10,005,818; cited from earlier work
CTLA-4 = target: T2, CTLA-4 (Homo sapiens, UniProt P16410); assay: CTLA-4 Blockade Bioassay (Promega); format: cell-based; set-up: host or cells: Jurkat T cells (CTLA-4 effector cells) co-cultured with aAPC/Raji cells; conditions: increasing concentrations
T2 sequence (P16410 36-223): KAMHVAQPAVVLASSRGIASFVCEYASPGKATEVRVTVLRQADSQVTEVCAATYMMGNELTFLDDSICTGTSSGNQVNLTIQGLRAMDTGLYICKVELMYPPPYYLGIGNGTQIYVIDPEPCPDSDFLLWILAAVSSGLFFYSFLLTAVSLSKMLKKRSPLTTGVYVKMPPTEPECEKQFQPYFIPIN
Method: CTLA-4 effector cells were incubated with aAPC/Raji Cells in the absence or presence of increasing concentrations of anti-CTLA-4 antibody (positive control), RLS-0122, RLS-0150, RLS-0154, RLS-0164 and RLS-0168 and RLS-0088 (negative control). Luminescence was detected in luminometer plate reader. The drop-off in signal with the test peptides at high concentrations is due to cell death as a result of peptide buffer effects on the cells.
To assess if PIC1 peptides could block CTLA-4 inhibitory activity in a cell-based assay, select peptides were screened in the CTLA-4 Blockade Bioassay (Promega). This bioluminescent cell-based assay can be used to measure the potency and stability of molecules targeting CTLA-4 and consists of two genetically engineered cell lines: CTLA-4 effector cells: Jurkat T cells expressing human CTLA-4 and a luciferase reporter driven by a native promoter which responds to TCR/CD28 activation and aAPC/Raji Cells: Raji cells expressing an engineered cell surface protein designed to activate cognate TCRs in an antigen-independent manner and endogenously expressing CTLA-4 ligands CD80 and CD86. When the two cell types are co-cultured, CTLA-4 competes with CD28 for their shared ligands, CD80 and CD86 and thus inhibits CD28 pathway activation and promoter-mediated luminescence. Addition of a molecule that blocks the interaction of CTLA-4 with its ligands CD80 and CD86 results in promoter-mediated luminescence.

[2] = tested on: purified human Pan T-cells; assay: T-cell exhaustion protocol (repeated CD3/CD28 Dynabead stimulation); format: cell-based; conditions: ELISA; for Caspase 3/7 levels, in words: peptides 2 mg/ml at each stimulation, day 8; for IFN-gamma levels in cell supernatants, in words / IL-2 levels in cell supernatants, in words: peptides 2 mg/ml, stimulation 2
Method: Purified human pan-T-cells were subject to stimulation with Dynabeads every 48 hours over the period of 8 days with cells also receiving PIC1 peptides (2 mg/ml) at each stimulation. Cells not receiving Dynabeads were run in parallel to assess background levels of Caspase 3/7 signal. At the eighth day, cells were harvested, and the levels of Caspase 3/7 determined by ELISA.
Purified human pan-T-cells were subject to stimulation with Dynabeads every 48 hours over the period of 8 days with cells also receiving PIC1 peptides (2 mg/ml) at each stimulation. Cell supernatants were collected at each stimulation and levels of IL-2 and IFN-gamma assayed by ELISA.
T-cell exhaustion is a form of T-cell dysfunction that occurs in cancer. It is generally defined by poor effector function, reduction in cytokine release (e.g., IL-2, TNF-alpha, IFN-gamma), sustained expression of inhibitory receptors (e.g., PD-1, LAG-3, CD244, CD160) with the progressive loss of effector function due to overstimulation. Exhaustion can prevent optimal control of tumor growth. Exhausted T cells are prevalent in the tumor microenvironment (TME) and can lead to T-cell apoptosis. T-cell exhaustion is reversible and pharmaceutical inhibition of T-cell exhaustion has been considered a promising strategy by many cancer researchers. To ascertain if PIC1 peptides could reverse T-cell exhaustion and increase T cell viability and effector function, a T-cell exhaustion protocol was developed. To induce T-cell exhaustion, purified human Pan T-cells were stimulated with T-Activator CD3/CD28 Dynabeads and cells were washed and re-stimulated every 48 hours. PIC1 peptides were added to the cells after each stimulation with Dynabeads. After three to four stimulations, cells were harvested for readouts which consisted of assessing T-cell apoptosis by measuring Caspase 3/7 levels and production of cytokines IL-2 and IFN-gamma, which are indicative of T-cell functionality. […] To further evaluate if PIC1 peptides could restore T-cell functionality in cells that have undergone the exhaustion protocol, the inventors next assessed production of cytokines IL-2 and IFN-gamma. Supernatants from the cells after each stimulation was collected and the cytokines measured by ELISA. […] The lower level of IFN-gamma signal was consistently seen in this assay.

VEGF = target: T3, VEGF (Homo sapiens, UniProt P15692); assay: VEGF Bioassay (Promega), VEGF signaling via VEGFR-2 (KDR); format: cell-based
T3 construct: Promega (bioassay)
T3 sequence (P15692 27-191 isoform P15692-4): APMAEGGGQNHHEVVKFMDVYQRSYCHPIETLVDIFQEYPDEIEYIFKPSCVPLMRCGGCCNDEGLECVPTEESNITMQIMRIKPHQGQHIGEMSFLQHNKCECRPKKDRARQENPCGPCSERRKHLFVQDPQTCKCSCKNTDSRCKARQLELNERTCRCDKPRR
From the text: Luminescence was detected in luminometer plate reader.
Angiogenesis, or the formation of new blood vessels from the established vasculature, is an essential element in tumor growth and metastasis formation. Inhibiting tumor angiogenesis is considered a major therapeutic strategy in oncology. […] The bioluminescent signal is detected in a luminometer.

HUVECs = assay: LPS-induced non-VEGF mediated angiogenesis (tube formation) in HUVECs; format: cell-based, human; conditions: peptides 10 mg/ml; LPS 10 ug/ml; overnight
Method: HUVEC cells were incubated with either RLS-0122, RLS-0150, RLS-0154, RLS-0164 and RLS-0168 followed by LPS addition and plating onto extracellular matrix. After overnight incubation, evidence of angiogenesis was determined by fluorescence microscopy. Cells receiving LPS and not receiving LPS served as positive and negative controls for angiogenesis.
Currently there are no drugs on the market to inhibit non-VEGF mediated angiogenesis. To assess whether the PIC1 peptides could inhibit non-VEGF mediated angiogenesis, the inventors developed a model of angiogenesis using human umbilical endothelial vein cells (HUVECs) in which addition of lipopolysaccharide (LPS) induces angiogenesis. HUVECs were first incubated with Cell Trace Violet dye, followed by addition of PIC1 peptides (10 mg/ml) for 1 hour at 37° C. and then treated with 10 ug/ml of LPS and placement on an extracellular matrix to promote angiogenesis. Cells were incubated overnight at 37° C. in a humidified CO2 incubator. Cells were then visualized for tube formation indicative of angiogenesis by fluorescence microscopy.

MPO = target: T4, MPO (Homo sapiens, UniProt P05164); assay: MPO activity assay; format: biochemical; conditions: compared to parent peptide
T4 construct: purchased Lee BioSolutions (Maryland Heights, MO)
Method: The MPO activity assay was performed as previously described. Briefly, peptides were diluted to 12 mg/ml and serially titrated in a 96 well plate at a volume of 0.02 ml. MPO was diluted to 20 μg/ml and 0.02 ml was added to the titrated peptides. TMB (3,30,5,50-tetramethylbenzidine) (0.1 ml) was added to each well for 2 minutes, followed by 0.1 ml of 2.5 N H2SO4 for another 2 minutes, and then read on a 96 well plate reader (BioTek) at 450 nm.
To ascertain the inhibition of MPO activity by the various peptides, a range of concentrations of the stapled peptides and D-amino acid variants were tested (FIG. 3A-3B) and half-maximal activity levels were calculated from the dose-response curves (FIG. 6A-6C, respectively).

T1 sequence (Q9NZQ7 19-238 limits assumed): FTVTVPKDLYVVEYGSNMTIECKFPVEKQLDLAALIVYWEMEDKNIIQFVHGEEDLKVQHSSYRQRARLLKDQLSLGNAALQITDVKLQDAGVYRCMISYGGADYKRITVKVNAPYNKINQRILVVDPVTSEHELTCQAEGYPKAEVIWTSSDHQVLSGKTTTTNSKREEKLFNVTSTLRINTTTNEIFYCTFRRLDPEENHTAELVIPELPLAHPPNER
T4 sequence (P05164 279-745 limits assumed): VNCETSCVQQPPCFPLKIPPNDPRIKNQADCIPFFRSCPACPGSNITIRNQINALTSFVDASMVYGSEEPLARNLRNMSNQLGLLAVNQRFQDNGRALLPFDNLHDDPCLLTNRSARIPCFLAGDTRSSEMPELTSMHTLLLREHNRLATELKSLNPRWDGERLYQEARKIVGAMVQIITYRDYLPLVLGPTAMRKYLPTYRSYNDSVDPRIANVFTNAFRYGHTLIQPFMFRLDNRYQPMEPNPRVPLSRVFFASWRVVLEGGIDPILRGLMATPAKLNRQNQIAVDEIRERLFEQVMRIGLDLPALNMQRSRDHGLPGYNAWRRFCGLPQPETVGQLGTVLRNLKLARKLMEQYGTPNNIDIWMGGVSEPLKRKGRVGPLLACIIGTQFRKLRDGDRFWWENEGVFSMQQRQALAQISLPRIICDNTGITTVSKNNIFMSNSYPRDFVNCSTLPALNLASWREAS
T4 sequence (P05164 165-273 limits assumed): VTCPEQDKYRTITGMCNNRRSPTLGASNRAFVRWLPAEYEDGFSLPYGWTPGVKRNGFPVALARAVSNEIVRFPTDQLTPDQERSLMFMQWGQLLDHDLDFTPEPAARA

## IALILEP(Sar)CCQERAA (IALILEPXCCQERAA; sarcosine at position 8; MOD_RES (8)..(8) Sarcosine) [PA-0088, parent peptide, sarcosine at position 8 of PIC1]
PD-1 binding to PD-L1
  inhibition of binding of PD-1 to PD-L1, in words: did not inhibit
[1]
  solubility in water: water soluble without PEGylation
CTLA-4
  inhibition of CTLA-4 mediated cell signaling (increase in luminescence), in words: no inhibitory over background

## IALILEPI(Sar)CQERAA (IALILEPIXCQERAA; sarcosine at position 9; MOD_RES (9)..(9) Sarcosine) [PA-0089, parent peptide, sarcosine at position 9 of PIC1]
[1]
  solubility in water: water soluble without PEGylation

## IALILEPI(Sar)CQERdAA (IALILEPIXCQERAA; D-Ala; sarcosine; MOD_RES (9)..(9) Sarcosine; MOD_RES (14)..(14) D-amino acid) [PA-0168]
[2]; listed as RLS-0168
  Caspase 3/7 levels, in words: very low to undetectable levels; also recorded: reduced levels
  IFN-gamma levels in cell supernatants, in words: detectable at stimulation 2; also recorded: increased levels
  IL-2 levels in cell supernatants, in words: detectable IL-2 at stimulation 2; also recorded: increased levels
VEGF
  inhibition of VEGF signaling via VEGFR-2 (luminescence), in words: did not inhibit signaling
HUVECs
  tube formation / angiogenesis inhibition, in words: no detectable tube formation
CTLA-4; listed as RLS-0168
  inhibition of CTLA-4 mediated cell signaling (increase in luminescence), in words: showed inhibitory activity; also recorded: able to inhibit CTLA-4 mediated cell signaling

## IALILEPICCQERAA-PEG24 (C-terminal PEG24) [PA-0071, PIC1 peptide with C-terminal monodisperse 24-mer PEGylated moiety]
PD-1 binding to PD-L1
  inhibition of binding of PD-1 to PD-L1, in words: did not inhibit

## IALILES5I(Sar)CS5ERAA (IALILE[S5]I[Sar]C[S5]ERAA; staple 7-11; not fully specified; printed as IALILES5I(Sar)CS5ERAA) [PA-0154]
MPO
  inhibition of MPO activity (half-maximal values), in words: decreased MPO inhibition
[2]; listed as RLS-0154
  Caspase 3/7 levels, in words: increase in Caspase 3/7 levels; also recorded: did not display reduction of Caspase levels
  IFN-gamma levels in cell supernatants, in words: not and increased levels
  IL-2 levels in cell supernatants, in words: detectable IL-2 at stimulation 2; also recorded: increased levels
VEGF
  inhibition of VEGF signaling via VEGFR-2 (luminescence), in words: dose-dependently reduced luminescence
CTLA-4; listed as RLS-0154
  inhibition of CTLA-4 mediated cell signaling (increase in luminescence), in words: showed inhibitory activity; also recorded: able to inhibit CTLA-4 mediated cell signaling
